{"source": "paper PMC5051544", "binders": {"B1": {"name": "Bacteriorhodopsin, P02945 14-262 (natural protein)", "chain": "QAQITGRPEWIWLALGTALMGLGTLYFLVKGMGVSDPDAKKFYAITTLVPAIAFTMYLSMLLGYGLTMVPFGGEQNPIYWARYADWLFTTPLLLLDLALLVDADQGTILALVGADGIMIGTGLVGALTKVYSYRFVWWAISTAAMLYILYVLFFGFTSKAESMRPEVASTFKVLRNVTVVLWSAYPVVWLIGSEGAGIVPLNIETLLFMVLDVSAKVGFGLILLRSRAIFGEAEAPEPSAGDGAAATSD"}}, "target": "T1, Bacteriorhodopsin, P02945", "T1 chain": "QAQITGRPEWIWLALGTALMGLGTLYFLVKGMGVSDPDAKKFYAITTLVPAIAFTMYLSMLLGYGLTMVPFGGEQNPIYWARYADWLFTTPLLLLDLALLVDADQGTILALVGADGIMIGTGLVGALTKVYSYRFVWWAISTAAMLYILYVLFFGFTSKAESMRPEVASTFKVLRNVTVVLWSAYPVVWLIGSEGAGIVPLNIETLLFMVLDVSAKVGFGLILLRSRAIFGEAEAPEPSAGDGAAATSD", "assay": "SEC", "conditions": "remark: other sources report otherwise"}
{"binder": "B1", "values": [{"measurement": "stoichiometry N", "result": 3, "unit": "per nanodisc"}]}
